We go through 3 molecules from article PMC7407374, “Addressing the Molecular Mechanism of Longitudinal Lamin Assembly Using Chimeric Fusions” (Cells, 2020).

In data set [1] the target is Gp7_(F40C)-LA 327-403 (bacteriophage φ29 | human) (UniProt P13848). Briefly: SEC-MALS; inline MALS (Dawn Heleos) on Superdex 200 Increase 10/300 GL at 20 °C; individual proteins and 1:1 mixtures; 150 mM NaCl with 10 mM Hepes pH 7.5 or 10 mM TEA pH 7.0. In general terms: In gel filtration, larger molecules generally elute earlier.
Data set [2] deals with the molecule itself. Described as above.

One may read the stoichiometry N as a count of units in the complex or per binding partner. Take “Gp7_(F40C)-LA 327-403 (from UniProt P13848 1-49; P02545 327-403) (domain or fragment)”: the stoichiometry N in data set [1] is 2.

B1: LA 17-70-Eb1 (domain or fragment, UniProt P02545 17-70, looked up)
chain: SSTPLSPTRITRLQEKEDLQELNDRLAVYIDRVRSLETENAGLRLRITESEEVVDFYFGKLRNIELICQENEGENDPVLQRIVDILYATDE
notes: human lamin A, residues 17-70: truncated head domain, coil1A and the first three residues of linker L1; also called N-terminal fragment; N-terminal construct; source: E. coli Rosetta 2 (DE3) pLysS, purified (Ni column, tag cleavage, second Ni column, SEC); not shown: His6, N-terminal, cleaved; SUMO, N-terminal, cleaved
Regarding B1, the “stoichiometry N” value in data set [2] is 2.

B2: LA 22-70-Eb1 (domain or fragment, UniProt P02545 22-70, looked up)
chain: SPTRITRLQEKEDLQELNDRLAVYIDRVRSLETENAGLRLRITESEEVVDFYFGKLRNIELICQENEGENDPVLQRIVDILYATDE
notes: human lamin A, residues 22-70: truncated head domain, coil1A and the first three residues of linker L1; also called N-terminal fragment; N-terminal construct; source: E. coli Rosetta 2 (DE3) pLysS, purified (Ni column, tag cleavage, second Ni column, SEC); not shown: His6, N-terminal, cleaved; SUMO, N-terminal, cleaved
Consider B2, for which, in data set [2], the “stoichiometry N” value was 2.
